Data published in the supplement of paper PMC12458215.
± gives the uncertainty stated by the source.

Test system: HEK293T
Test: plasma membrane surface immunostaining intensity (anti-HA, deep receptor scanning) (arbitrary fluorescence units); higher = higher plasma membrane expression

Row | Sequence | plasma membrane surface immunostaining intensity (GPCR class: A (Olfactory)) | plasma membrane surface immunostaining intensity (GPCR class: A) | further results
1 | MENQSSISEFFLRGISAPPEQQQSLFGIFLCMYLVTLTGNLLIILAIGSDLHLHTPMYFFLANLSFVDMGLTSSTVTKMLVNIQTRHHTISYTGCLTQMYFFLMFGDLDSFFLAAMAYDRYVAICHPLCYSTVMRPQVCALMLALCWVLTNIVALTHTFLMARLSFCVTGEIAHFFCDITPVLKLSCSDTHINEMMVFVLGGTVLIVPFLCIVTSYIHIVPAILRVRTRGGVGKAFSTCSSHLCVVCVFYGTLFSAYLCPPSIASEEKDIAAAAMYTIVTPMLNPFIYSLRNKDMKGALKRLFSHRSIVSS [OR1N1] | 119 ± 14 |  | 
2 | MPNSTTVMEFLLMRFSDVWTLQILHSASFFMLYLVTLMGNILIVTVTTCDSSLHMPMYFFLRNLSILDACYISVTVPTSCVNSLLDSTTISKAGCVAQVFLVVFFVYVELLFLTIMAHDRYVAVCQPLHYPVIVNSRICIQMTLASLLSGLVYAGMHTGSTFQLPFCRSNVIHQFFCDIPSLLKLSCSDTFSNEVMIVVSALGVGGGCFIFIIRSYIHIFSTVLGFPRGADRTKAFSTCIPHILVVSVFLSSCSSVYLRPPAIPAATQDLILSGFYSIMPPLFNPIIYSLRNKQIKVAIKKIMKRIFYSENV [OR14C36] | 264 ± 80 |  | 
3 | MSQVTNTTQEGIYFILTDIPGFEASHIWISIPVCCLYTISIMGNTTILTVIRTEPSVHQRMYLFLSMLALTDLGLTLTTLPTVMQLLWFNVRRISSEACFAQFFFLHGFSFMESSVLLAMSVDCYVAICCPLHYASILTNEVIGRTGLAIICCCVLAVLPSLFLLKRLPFCHSHLLSRSYCLHQDMIRLVCADIRLNSWYGFALALLIIIVDPLLIVISYTLILKNILGTATWAERLRALNNCLSHILAVLVLYIPMVGVSMTHRFAKHASPLVHVIMANIYLLAPPVMNPIIYSVKNKQIQWGMLNFLSLKNMHSR [OR51Q1] | 152 ± 70 |  | 
4 | MSYFYRLKLMKEAVLVKLPFTSLPLLLQTLSRKSRDMEIKNYSSSTSGFILLGLSSNPQLQKPLFAIFLIMYLLAAVGNVLIIPAIYSDPRLHTPMYFFLSNLSFMDICFTTVIVPKMLVNFLSETKVISYVGCLAQMYFFMAFGNTDSYLLASMAIDRLVAICNPLHYDVVMKPRHCLLMLLGSCSISHLHSLFRVLLMSRLSFCASHIIKHFFCDTQPVLKLSCSDTSSSQMVVMTETLAVIVTPFLCIIFSYLRIMVTVLRIPSAAGKWKAFSTCGSHLTAVALFYGSIIYVYFRPLSMYSVVRDRVATVMYTVVTPMLNPFIYSLRNKDMKRGLKKLQDRIYR [OR1L6] | 247 ± 87 |  | 
5 | MDNLTKVTEFLLMEFSGIWELQVLHAGLFLLIYLAVLVGNLLIIAVITLDQHLHTPMYFFLKNLSVLDLCYISVTVPKSIRNSLTRRSSISYLGCVAQVYFFSAFASAELAFLTVMSYDRYVAICHPLQYRAVMTSGGCYQMAVTTWLSCFSYAAVHTGNMFREHVCRSSVIHQFFRDIPHVLALVSCEVFFVEFLTLALSSCLVLGCFILMMISYFQIFSTVLRIPSGQSRAKAFSTCSPQLIVIMLFLTTGLFAALGPIAKALSIQDLVIALTYTVLPPFLNPIIYSLRNKEIKTAMWRLFVKIYFLQK [OR14I1] | 118 ± 14 |  | 
6 | MTPTDFTSPIPNMADDYGSESTSSMEDYVNFNFTDFYCEKNNVRQFASHFLPPLYWLVFIVGALGNSLVILVYWYCTRVKTMTDMFLLNLAIADLLFLVTLPFWAIAAADQWKFQTFMCKVVNSMYKMNFYSCVLLIMCISVDRYIAIAQAMRAHTWREKRLLYSKMVCFTIWVLAAALCIPEILYSQIKEESGIAICTMVYPSDESTKLKSAVLTLKVILGFFLPFVVMACCYTIIIHTLIQAKKSSKHKALKVTITVLTVFVLSQFPYNCILLVQTIDAYAMFISNCAVSTNIDICFQVTQTIAFFHSCLNPVLYVFVGERFRRDLVKTLKNLGCISQAQWVSFTRREGSLKLSSMLLETTSGALSL [CCR9] |  | 4060 ± 290 | 
7 | MTILLNSSLQRATFFLTGFQGLEGLHGWISIPFCFIYLTVILGNLTILHVICTDATLHGPMYYFLGMLAVTDLGLCLSTLPTVLGIFWFDTREIGIPACFTQLFFIHTLSSMESSVLLSMSIDRYVAVCNPLHDSTVLTPACIVKMGLSSVLRSALLILPLPFLLKRFQYCHSHVLAHAYCLHLEIMKLACSSIIVNHIYGLFVVACTVGVDSLLIFLSYALILRTVLSIASHQERLRALNTCVSHICAVLLFYIPMIGLSLVHRFGEHLPRVVHLFMSYVYLLVPPLMNPIIYSIKTKQIRQRIIKKFQFIKSLRCFWKD [OR51G1] | 116 ± 20 |  | 
8 | MLLETQDALYVALELVIAALSVAGNVLVCAAVGTANTLQTPTNYFLVSLAAADVAVGLFAIPFAITISLGFCTDFYGCLFLACFVLVLTQSSIFSLLAVAVDRYLAICVPLRYKSLVTGTRARGVIAVLWVLAFGIGLTPFLGWNSKDSATNNCTEPWDGTTNESCCLVKCLFENVVPMSYMVYFNFFGCVLPPLLIMLVIYIKIFLVACRQLQRTELMDHSRTTLQREIHAAKSLAMIVGIFALCWLPVHAVNCVTLFQPAQGKNKPKWAMNMAILLSHANSVVNPIVYAYRNRDFRYTFHKIISRYLLCQADVKSGNGQAGVQPALGVGL [ADORA2B] |  | 1240 ± 140 | 
9 | MSENGSFANCCEAGGWAVRPGWSGAGSARPSRTPRPPWVAPALSAVLIVTTAVDVVGNLLVILSVLRNRKLRNAGNLFLVSLALADLVVAFYPYPLILVAIFYDGWALGEEHCKASAFVMGLSVIGSVFNITAIAINRYCYICHSMAYHRIYRRWHTPLHICLIWLLTVVALLPNFFVGSLEYDPRIYSCTFIQTASTQYTAAVVVIHFLLPIAVVSFCYLRIWVLVLQARRKAKPESRLCLKPSDLRSFLTMFVVFVIFAICWAPLNCIGLAVAINPQEMAPQIPEGLFVTSYLLAYFNSCLNAIVYGLLNQNFRREYKRILLALWNPRHCIQDASKGSHAEGLQSPAPPIIGVQHQADAL [MTNR1B] |  | 280 ± 17 | 
10 | MAWENQTFNSDFLLLGIFNHSPTHTFLFFLVLAIFSVAFMGNSIMVLLIYLDTQLHTPMYFLLSQLSLMDLMLICTTVPKMAFNYLSGSKSISMAGCATQIFFYISLLGSECFLLAVMSYDRYTAICHPLRYTNLMRPKICGLMTAFSWILGSTDGIIDAVATFSFSYCGSREIAHFCCDFPSLLILSCNDTSIFEEVIFICCIVMLVFPVAIIITSYARVILAVIHMGSGEGRRKAFTTCSSHLMVVGMYYGAGLFMCIQPTSHHSPMQDKMVSVFYTIVTPMLNPLIYSLRNKEVTRALMKILGKGKSGD [OR2M7] | 157 ± 44 |  | 
11 | MDLGKPMKSVLVVALLVIFQVCLCQDEVTDDYIGDNTTVDYTLFESLCSKKDVRNFKAWFLPIMYSIICFVGLLGNGLVVLTYIYFKRLKTMTDTYLLNLAVADILFLLTLPFWAYSAAKSWVFGVHFCKLIFAIYKMSFFSGMLLLLCISIDRYVAIVQAVSAHRHRARVLLISKLSCVGIWILATVLSIPELLYSDLQRSSSEQAMRCSLITEHVEAFITIQVAQMVIGFLVPLLAMSFCYLVIIRTLLQARNFERNKAIKVIIAVVVVFIVFQLPYNGVVLAQTVANFNITSSTCELSKQLNIAYDVTYSLACVRCCVNPFLYAFIGVKFRNDLFKLFKDLGCLSQEQLRQWSSCRHIRRSSMSVEAETTTTFSP [CCR7] |  | 2440 ± 380 | 
12 | MVLASGNSSSHPVSFILLGIPGLESFQLWIAFPFCATYAVAVVGNITLLHVIRIDHTLHEPMYLFLAMLAITDLVLSSSTQPKMLAIFWFHAHEIQYHACLIQVFFIHAFSSVESGVLMAMALDCYVAICFPLRHSSILTPSVVIKLGTIVMLRGLLWVSPFCFMVSRMPFCQHQAIPQSYCEHMAVLKLVCADTSISRGNGLFVAFSVAGFDMIVIGMSYVMILRAVLQLPSGEARLKAFSTRSSHICVILALYIPALFSFLTYRFGHDVPRVVHILFANLYLLIPPMLNPIIYGVRTKQIGDRVIQGCCGNIP [OR52R1] | 173 ± 48 |  | 
13 | MARENSTFNSDFILLGIFNHSPTHTFLFFLVLAIFSVAFMGNSVMVLLIYLDTQLHTPMYLLLSQLSLMDLMLICTTVPKMAFNYLSGSKSISMAGCATQIFFYTSLLGSECFLLAVMAYDRYTAICHPLRYTNLMSPKICGLMTAFSWILGSTDGIIDVVATFSFSYCGSREIAHFFCDFPSLLILSCSDTSIFEKILFICCIVMIVFPVAIIIASYARVILAVIHMGSGEGRRKAFTTCSSHLLVVGMYYGAALFMYIRPTSDRSPTQDKMVSVFYTILTPMLNPLIYSLRNKEVTRAFMKILGKGKSGE [OR2M3] | 138 ± 19 |  | 
14 | MGNRSTADADGLLAGRGPAAGASAGASAGLAGQGAAALVGGVLLIGAVLAGNSLVCVSVATERALQTPTNSFIVSLAAADLLLALLVLPLFVYSEVQGGAWLLSPRLCDALMAMDVMLCTASIFNLCAISVDRFVAVAVPLRYNRQGGSRRQLLLIGATWLLSAAVAAPVLCGLNDVRGRDPAVCRLEDRDYVVYSSVCSFFLPCPLMLLLYWATFRGLQRWEVARRAKLHGRAPRRPSGPGPPSPTPPAPRLPQDPCGPDCAPPAPGLPRGPCGPDCAPAAPSLPQDPCGPDCAPPAPGLPPDPCGSNCAPPDAVRAAALPPQTPPQTRRRRRAKITGRERKAMRVLPVVVGAFLLCWTPFFVVHITQALCPACSVPPRLVSAVTWLGYVNSALNPVIYTVFNAEFRNVFRKALRACC [DRD4] |  | 602 ± 92 | 
15 | MAFLIILITCFVIILATSQPCQTPDDFVAATSPGHIIIGGLFAIHEKMLSSEDSPRRPQIQECVGFEISVFLQTLAMIHSIEMINNSTLLPGVKLGYEIYDTCTEVTVAMAATLRFLSKFNCSRETVEFKCDYSSYMPRVKAVIGSGYSEITMAVSRMLNLQLMPQVGYESTAEILSDKIRFPSFLRTVPSDFHQIKAMAHLIQKSGWNWIGIITTDDDYGRLALNTFIIQAEANNVCIAFKEVLPAFLSDNTIEVRINRTLKKIILEAQVNVIVVFLRQFHVFDLFNKAIEMNINKMWIASDNWSTATKITTIPNVKKIGKVVGFAFRRGNISSFHSFLQNLHLLPSDSHKLLHEYAMHLSACAYVKDTDLSQCIFNHSQRTLAYKANKAIERNFVMRNDFLWDYAEPGLIHSIQLAVFALGYAIRDLCQARDCQNPNAFQPWELLGVLKNVTFTDGWNSFHFDAHGDLNTGYDVVLWKEINGHMTVTKMAEYDLQNDVFIIPDQETKNEFRNLKQIQSKCSKECSPGQMKKTTRSQHICCYECQNCPENHYTNQTDMPHCLLCNNKTHWAPVRSTMCFEKEVEYLNWNDSLAILLLILSLLGIIFVLVVGIIFTRNLNTPVVKSSGGLRVCYVILLCHFLNFASTSFFIGEPQDFTCKTRQTMFGVSFTLCISCILTKSLKILLAFSFDPKLQKFLKCLYRPILIIFTCTGIQVVICTLWLIFAAPTVEVNVSLPRVIILECEEGSILAFGTMLGYIAILAFICFIFAFKGKYENYNEAKFITFGMLIYFIAWITFIPIYATTFGKYVPAVEIIVILISNYGILYCTFIPKCYVIICKQEINTKSAFLKMIYSYSSHSVSSIALSPASLDSMSGNVTMTNPSSSGKSATWQKSKDLQAQAFAHICRENATSVSKTLPRKRMSSI [GPRC6A] |  |  | plasma membrane surface immunostaining intensity (GPCR class: C): 158 ± 24
16 | MAEENHTMKNEFILTGFTDHPELKTLLFVVFFAIYLITVVGNISLVALIFTHRRLHTPMYIFLGNLALVDSCCACAITPKMLENFFSENKRISLYECAVQFYFLCTVETADCFLLAAMAYDRYVAICNPLQYHIMMSKKLCIQMTTGAFIAGNLHSMIHVGLVFRLVFCGSNHINHFYCDILPLYRLSCVDPYINELVLFIFSGSVQVFTIGSVLISYLYILLTIFKMKSKEGRAKAFSTCASHFLSVSLFYGSLFFMYVRPNLLEEGDKDIPAAILFTIVVPLLNPFIYSLRNREVISVLRKILMKK [OR5K1] | 194 ± 62 |  | 
